Positions count from the first letter of the chain named.
T1: wtVLPs of parvovirus B19 genotype 1 (VP2 only) (parvovirus B19 genotype 1, UniProt P07299 228-781)
T1 construct: Intact virus-like particles self-assembled from VP2 alone, made in Sf9 cells with baculovirus; also called B19V genotype 1; Prototype Q399QYTDQ404
T1 sequence: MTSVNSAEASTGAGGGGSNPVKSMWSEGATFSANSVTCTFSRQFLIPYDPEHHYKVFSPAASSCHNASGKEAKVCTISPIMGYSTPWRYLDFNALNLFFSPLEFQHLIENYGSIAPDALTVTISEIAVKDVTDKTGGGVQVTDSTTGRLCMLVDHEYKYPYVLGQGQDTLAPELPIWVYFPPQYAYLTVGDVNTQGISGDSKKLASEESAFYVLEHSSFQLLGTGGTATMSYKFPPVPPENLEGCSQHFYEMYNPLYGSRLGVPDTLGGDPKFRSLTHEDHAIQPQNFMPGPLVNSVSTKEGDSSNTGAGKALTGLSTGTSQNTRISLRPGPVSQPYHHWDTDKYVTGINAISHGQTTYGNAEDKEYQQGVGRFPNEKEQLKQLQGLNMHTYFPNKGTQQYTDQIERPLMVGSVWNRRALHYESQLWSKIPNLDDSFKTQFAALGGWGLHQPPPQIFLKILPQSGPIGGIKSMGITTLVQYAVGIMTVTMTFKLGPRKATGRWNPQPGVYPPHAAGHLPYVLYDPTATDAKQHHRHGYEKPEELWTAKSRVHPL

T2: VLPs of B19V genotype 3 (V9 strain VP2) (parvovirus B19 genotype 3, UniProt P07299 228-781)
T2 construct: Intact VLPs of non-mutated VP2
T2 chain: T1 sequence with V21T, S32T, D191E, Q220E, T227S, P236A, V294I, S304N

T3: QQW401TDQ-VLPs of B19V (parvovirus B19 genotype 1 (mutated), UniProt P07299 228-781)
T3 construct: also called construct B
T3 chain: T1 sequence with Y401W

T4: HPV16 VLPs (human papillomavirus type 16, UniProt P03101 1-505)
T4 construct: Specificity control; also called human papillomavirus VLPs
T4 sequence: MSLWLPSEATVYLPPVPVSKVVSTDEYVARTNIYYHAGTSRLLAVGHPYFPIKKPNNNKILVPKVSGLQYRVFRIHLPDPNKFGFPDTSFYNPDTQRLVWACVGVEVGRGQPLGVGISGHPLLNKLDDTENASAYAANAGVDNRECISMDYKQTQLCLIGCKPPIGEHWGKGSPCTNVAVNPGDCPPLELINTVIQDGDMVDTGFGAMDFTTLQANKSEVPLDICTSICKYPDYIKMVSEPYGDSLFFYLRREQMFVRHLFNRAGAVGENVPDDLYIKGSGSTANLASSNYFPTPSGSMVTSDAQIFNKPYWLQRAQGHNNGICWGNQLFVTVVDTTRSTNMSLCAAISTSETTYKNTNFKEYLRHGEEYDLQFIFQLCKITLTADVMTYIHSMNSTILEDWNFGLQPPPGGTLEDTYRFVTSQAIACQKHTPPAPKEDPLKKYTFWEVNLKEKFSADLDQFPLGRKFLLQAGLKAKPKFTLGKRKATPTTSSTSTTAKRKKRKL

B1: MAb #25 (antibody, V domains shown)
VH: QVQLQQPGAELVRPGASVKLSCKASGYTFTNYWMHWVKQRPEQGLEWIGRIDPYDSETHYNQKFKDKAILTVDTSSNTAYMQLSSLTSEDSAVYYCTSYYYGSNYVWHFDVWGAGTTVTVSS
VL: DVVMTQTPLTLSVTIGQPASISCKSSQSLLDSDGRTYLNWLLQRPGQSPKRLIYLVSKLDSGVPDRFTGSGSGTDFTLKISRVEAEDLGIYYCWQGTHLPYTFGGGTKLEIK
notes: Murine hybridoma antibody, supernatant; also called antibody 25
B2: MAb #91 (antibody, V domains shown)
VH: EVQLQQSGPELVKPGASVKISCKASGYSFTDYFMNWVKQSHGKSLEWIGRINPYNGDSFYNQNFRGSVTLTVDKSSGTAHMELLSLTSEDSTVYYCGAYRYDGYAMDYWGQGTSVTVSS
VL: DVVMTQTPLSLPVSLGDQASISCRSSQSLVHSDGNTYLHWYLQKPGQSPKLLIYKVSNRFSGVPDRFSGSGSGTDFTLKISRVEAEDLGVYFCSQSTHVPFTFGSGTKLEIK
notes: Murine hybridoma antibody, supernatant; also called antibody 91

What was measured:
[1] = target: T1, wtVLPs of parvovirus B19 genotype 1 …; test: ELISA, VLPs coated
Description: (§1) First, 96-well ELISA plates (Immunolon 2; Dynatech) were coated, either 1 h at 37° C. or overnight at 4° C., with 250 to 500 ng per well of B19V VLPs. Intact VLPs were re-suspended in PBS, and the disrupted VLPs were re-suspended in the following solution: 0.2 M NaCO₃, 0.01 M dithiothreitol, pH 7.0, to detect sequential epitopes. The plates were washed three times with PBS, then saturated with bovine albumin via PBS containing 5% bovine serum albumin (5% PBSA) for 1 h at 37° C. After washing three times, plates were then incubated with primary antibodies. Primary antibodies used were rabbit sera (at 1/1000), mouse sera (1/100 dilution) to B19V VLPs, or supernatant of hybridoma cells without dilution for 1 h at 37° C. Thereafter, plates were washed thrice with PBS, then incubated with alkaline phosphatase-conjugated secondary antibodies, with either goat anti-mouse or anti-rabbit IgG (H+L) (Sigma, USA) at a dilution of 1:5000 for 1 h at 37° C. After washing with PBS, bound antibodies were detected with an alkaline phosphatase chromogenic substrate (Phosphatase substrate, Sigma, USA), and absorption was measured at 405 nm. One percent PBSA and sera collected from pre-immune animals were used as negative controls. Human papillomavirus (HPV) and mouse parvovirus (MPV) VLPs were used to check the cross-reactivity of primary antibodies with other types of VLPs. All antibodies were diluted in 1% PBSA.

[2] = target: T2, VLPs of B19V genotype 3 (V9 strain VP2); test: ELISA, VLPs coated
Description: as §1

[3] = target: T1, wtVLPs of parvovirus B19 genotype 1 …; test: ELISA, intact VLPs coated, hybridoma supernatant
QQW401TDQ-VLPs of B19V = target: T3, QQW401TDQ-VLPs of B19V; test: ELISA, intact VLPs coated, hybridoma supernatant
HPV16 VLPs = target: T4, HPV16 VLPs; test: ELISA, intact VLPs coated, hybridoma supernatant

Row | Binder | ELISA absorbance (405 nm) [1] | ELISA absorbance (405 nm) [2] | ELISA absorbance (405 nm) [3] | ELISA absorbance (405 nm) (QQW401TDQ-VLPs of B19V) | ELISA absorbance (405 nm) (HPV16 VLPs)
1 | B1 | 2.67 | 2.65 | 2.86 | 1.53 | 0.009
2 | B2 | 3.43 | 3.05 | 3.72 | 1.64 | 0.005
